Results taken from US20220023399.

Experiments:
[1] = target: T1, rabbit serum albumin, P49065
T1 chain: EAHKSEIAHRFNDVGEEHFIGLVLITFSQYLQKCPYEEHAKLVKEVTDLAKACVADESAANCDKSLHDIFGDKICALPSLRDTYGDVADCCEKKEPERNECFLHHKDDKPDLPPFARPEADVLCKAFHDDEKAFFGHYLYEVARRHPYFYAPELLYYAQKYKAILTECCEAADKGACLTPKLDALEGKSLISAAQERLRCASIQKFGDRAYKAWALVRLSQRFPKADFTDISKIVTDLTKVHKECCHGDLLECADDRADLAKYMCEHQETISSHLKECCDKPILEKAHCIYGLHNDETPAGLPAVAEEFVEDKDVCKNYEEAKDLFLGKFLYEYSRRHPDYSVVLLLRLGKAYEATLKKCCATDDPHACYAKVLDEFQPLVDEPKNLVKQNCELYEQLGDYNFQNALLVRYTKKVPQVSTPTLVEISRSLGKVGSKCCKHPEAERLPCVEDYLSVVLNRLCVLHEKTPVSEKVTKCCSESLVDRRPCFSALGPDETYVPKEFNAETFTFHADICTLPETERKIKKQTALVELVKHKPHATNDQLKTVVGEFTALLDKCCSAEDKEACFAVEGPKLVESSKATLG

B1: PlySs2 (CF-301) lysin (protein)
chain: MTTVNEALNNVRAQVGSGVSVGNGECYALASWYERMISPDATVGLGAGVGWVSGAIGDTISAKNIGSSYNWQANGWTVSTSGPFKAGQIVTLGATPGNPYGHVVIVEAVDGDRLTILEQNYGGKRYPVRNYYSAASYRQQVVHYITPPGTVAQSAPNLAGSRSYRETGTMTVTVDALNVRRAPNTSGEIVAVYKRGESFDYDTVIIDVNGYVWVSYIGGSGKRNYVATGATKDGKRFGNAWGTFK
Which Fold decrease in CF-301 MIC compared to media alone (delipidated human serum + Oleate 0.625 mg/mL) (human serum albumin) does the source give for B1 here?
The Fold decrease in CF-301 MIC compared to media alone (delipidated human serum + Oleate 0.625 mg/mL) was 8 fold.

And the Fold decrease in CF-301 MIC compared to media alone (delipidated human serum + Palmitate 0.625 mg/mL) (human serum albumin)?
The Fold decrease in CF-301 MIC compared to media alone (delipidated human serum + Palmitate 0.625 mg/mL) was 16 fold.

What about the Fold decrease in CF-301 MIC compared to media alone (delipidated human serum + Palmitate + Oleate) (human serum albumin) of the same protein?
Its Fold decrease in CF-301 MIC compared to media alone (delipidated human serum + Palmitate + Oleate) is 16 fold.

What about the Fold decrease in MIC (50% MHB/50% heat-inactivated human serum supplemented with HSA, 40 mg/mL) (human serum albumin) of the same protein?
Its Fold decrease in MIC (50% MHB/50% heat-inactivated human serum supplemented with HSA, 40 mg/mL) is 4 fold.

What about the Fold decrease in MIC (MHB supplemented with HSA, 40 mg/mL) (human serum albumin) of the same protein?
Its Fold decrease in MIC (MHB supplemented with HSA, 40 mg/mL) is 8 fold.

And the Fold increase in CF-301 specific activity with rHSA, 4% (human serum albumin)?
The Fold increase in CF-301 specific activity with rHSA, 4% was 17.8 fold.

And the Specific Activity (Units/mg) of CF-301 in the lytic assay with rHSA, 4% (human serum albumin)?
The Specific Activity (Units/mg) of CF-301 in the lytic assay with rHSA, 4% was 43100 Units/mg.

And the “ΣFICavg (checkerboard, S. aureus, heat-inactivated human serum); HSA fraction V” value (human serum albumin)?
Its value is at most 0.086.

What about the “ΣFICavg (checkerboard, S. aureus, heat-inactivated human serum); HSA recombinant” value (human serum albumin) of the same protein?
Its value is at most 0.1.

What about the Fold decrease in MIC (50% MHB/50% heat-inactivated human serum supplemented with RabSA, 40 mg/mL) [1] of the same protein?
Its Fold decrease in MIC (50% MHB/50% heat-inactivated human serum supplemented with RabSA, 40 mg/mL) is 4 fold.

And the Fold decrease in MIC (MHB supplemented with RabSA, 40 mg/mL) [1]?
The Fold decrease in MIC (MHB supplemented with RabSA, 40 mg/mL) was 8 fold.

What about the “ΣFICavg (checkerboard, S. aureus, heat-inactivated human serum); rabbit serum albumin from serum” value [1] of the same protein?
The value was at most 0.1.
